Source: publication PMC9265643
Values joined by “and” are separate entries in the source; they are usually repeats but may differ in a detail not shown here. Equal values may be shown once. Each block holds one substance with its values, some of them ahead of it.

What was measured:
[1] = molecular target: ErGtα-mRuby3 (wildtype European robin cone G protein α-subunit with mRuby3 fused to its C-terminus) (European robin); test: FRET or BRET; acceptor photobleaching FRET in transiently co-transfected QNR/K2 quail neuroretina cells, fixed 48 h after transfection; donor mClover3, acceptor mRuby3; FRET efficiency in percent
[2] = molecular target: rhodopsin (dark-adapted) (Bos taurus) (UniProt P02699); test: SPR; details: cited from earlier work
[3] = molecular target: non-myristoylated Gtα/Giα chimera (European robin cone Gtα with residues 220-298 replaced by the corresponding region of bovine Giα1), His6-SUMO tag removed (European robin | bovine); test: SPR; Biacore 3000; Gtα/Giα chimera (myristoylated or non-myristoylated) amine-coupled on CM5 chip, ErCry variant injected; 10 mM HEPES/NaOH pH 7.4, 150 mM NaCl, 10 mM MgCl2, 0.005% Tween-20, 3.4 mM EDTA; control surface Ulp1 (activation/deactivation cycle for ErCry1a); global fit to a two-state-reaction model, apparent KD = kd1/ka1
[4] = molecular target: non-myristoylated Gtα/Giα chimera (European robin cone Gtα with residues 220-298 replaced by the corresponding region of bovine Giα1), His6-SUMO tag removed (European robin | bovine); test: as above; remark: listed apart in the source
[5] = molecular target: myristoylated Gtα/Giα chimera (European robin cone Gtα with residues 220-298 replaced by the corresponding region of bovine Giα1) (European robin | bovine); test: as above
[6] = molecular target: non-myristoylated Gtα/Giα chimera (European robin cone Gtα with residues 220-298 replaced by the corresponding region of bovine Giα1), His6-SUMO tag removed (European robin | bovine); test: SPR; Biacore 3000; Gtα/Giα chimera (myristoylated or non-myristoylated) amine-coupled on CM5 chip, 500 nM ErCry4a-497 injected; 10 mM HEPES/NaOH pH 7.4, 150 mM NaCl, 10 mM MgCl2, 0.005% Tween-20, 3.4 mM EDTA; fit to a Langmuir binding model, apparent KD
[7] = molecular target: non-myristoylated Gtα/Giα chimera (European robin cone Gtα with residues 220-298 replaced by the corresponding region of bovine Giα1), His6-SUMO tag removed (European robin | bovine); test: as above; remark: listed apart in the source
[8] = molecular target: myristoylated Gtα/Giα chimera (European robin cone Gtα with residues 220-298 replaced by the corresponding region of bovine Giα1) (European robin | bovine); test: as above

Sequence of UniProt P02699 (P02699 whole entry, the tested form may be a part): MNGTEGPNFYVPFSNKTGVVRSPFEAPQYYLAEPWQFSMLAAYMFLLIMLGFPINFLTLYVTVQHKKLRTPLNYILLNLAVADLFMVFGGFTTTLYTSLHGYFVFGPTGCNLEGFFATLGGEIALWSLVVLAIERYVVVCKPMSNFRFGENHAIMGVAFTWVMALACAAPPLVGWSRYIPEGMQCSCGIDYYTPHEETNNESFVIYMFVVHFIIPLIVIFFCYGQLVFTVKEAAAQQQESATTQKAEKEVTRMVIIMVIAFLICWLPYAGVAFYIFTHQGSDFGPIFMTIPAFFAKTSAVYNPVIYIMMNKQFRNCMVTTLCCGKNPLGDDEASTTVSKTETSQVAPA

Kd [3]: 35 nM | Kd [4]: 32 nM | ka1 (two-state-reaction model, step A + B to AB) [4]: 343000 M⁻¹ s⁻¹ | kd1 (two-state-reaction model, step AB to A + B) [4]: 0.011 s⁻¹ | Kd [5]: 200 nM and 290 nM | ka1 (two-state-reaction model, step A + B to AB) [5]: 3320 M⁻¹ s⁻¹ | kd1 (two-state-reaction model, step AB to A + B) [5]: 0.000674 s⁻¹
Substance: European robin cryptochrome 4a (ErCry4a), purified recombinant, as used in SPR (natural protein)

Kd [5]: 1530 nM | ka1 (two-state-reaction model, forward reaction rate) [5]: 21700 M⁻¹ s⁻¹ | kd1 (two-state-reaction model, backward reaction rate) [5]: 0.0332 s⁻¹
Substance: European robin cryptochrome 1b (ErCry1b), apo form without bound FAD (natural protein)

Kd [6]: 360 nM | Kd [7]: 340 nM | koff [7]: 0.00305 s⁻¹ | kon [7]: 6510 M⁻¹ s⁻¹ | Kd [8]: 200 nM | koff [8]: 0.000915 s⁻¹ | kon [8]: 5350 M⁻¹ s⁻¹
Substance: C-terminally truncated European robin cryptochrome 4a (ErCry4a-497) (domain or fragment)

Kd [5]: 400 nM | ka1 (two-state-reaction model, forward reaction rate) [5]: 130000 M⁻¹ s⁻¹ | kd1 (two-state-reaction model, backward reaction rate) [5]: 0.0527 s⁻¹
Substance: European robin cryptochrome 1a (ErCry1a), apo form without bound FAD (natural protein)

Further lines, the substance ahead of its results:

Substance: mClover3-ErCry4 (ErCry4a with mClover3 fused to its N-terminus) (natural protein)
FRET efficiency [1]: 49.7%

Substance: transducin (from UniProt P04695)
Kd [2]: 360 nM

Substance: mClover3-ErCry4, truncated after aa 497 (domain or fragment)
FRET efficiency [1]: 49.5%
